Drawing on patent US20220332804A1 (CSL INNOVATION, published 2022), this text covers Kd and Fold diff for 2 molecules.

One assay deals with T1, human C2 M316A (human, UniProt P06681 21-752).
T1 sequence: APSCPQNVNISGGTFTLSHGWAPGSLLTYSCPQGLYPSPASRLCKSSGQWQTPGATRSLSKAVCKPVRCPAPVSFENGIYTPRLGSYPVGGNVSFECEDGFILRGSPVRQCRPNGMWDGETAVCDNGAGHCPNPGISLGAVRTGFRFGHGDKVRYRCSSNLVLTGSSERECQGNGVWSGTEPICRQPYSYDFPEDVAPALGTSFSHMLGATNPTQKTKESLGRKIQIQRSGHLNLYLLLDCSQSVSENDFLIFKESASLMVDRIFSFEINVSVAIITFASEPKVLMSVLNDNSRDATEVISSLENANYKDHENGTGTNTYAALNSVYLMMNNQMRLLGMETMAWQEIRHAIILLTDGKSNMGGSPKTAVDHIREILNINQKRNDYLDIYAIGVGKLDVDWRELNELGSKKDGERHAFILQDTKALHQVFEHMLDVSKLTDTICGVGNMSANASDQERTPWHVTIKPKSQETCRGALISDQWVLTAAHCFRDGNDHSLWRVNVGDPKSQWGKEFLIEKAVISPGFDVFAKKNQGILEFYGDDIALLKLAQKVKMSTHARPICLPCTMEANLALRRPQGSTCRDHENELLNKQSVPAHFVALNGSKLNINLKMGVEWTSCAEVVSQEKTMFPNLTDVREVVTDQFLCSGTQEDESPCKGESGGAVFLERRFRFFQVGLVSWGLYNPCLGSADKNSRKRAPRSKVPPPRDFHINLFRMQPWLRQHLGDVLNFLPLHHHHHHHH
Put plainly: SPR, mAb captured, C2 mutant analyte.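 Note: Anti-C2 mAbs captured on goat anti-human IgG Biacore CM5 chips, alanine or serine C2 surface mutants flowed over at 37 °C, double-referenced sensorgrams fitted to a 1:1 binding model.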

The target of a further assay is T2, human C2 A436S (human, UniProt P06681 21-752).
T2 sequence: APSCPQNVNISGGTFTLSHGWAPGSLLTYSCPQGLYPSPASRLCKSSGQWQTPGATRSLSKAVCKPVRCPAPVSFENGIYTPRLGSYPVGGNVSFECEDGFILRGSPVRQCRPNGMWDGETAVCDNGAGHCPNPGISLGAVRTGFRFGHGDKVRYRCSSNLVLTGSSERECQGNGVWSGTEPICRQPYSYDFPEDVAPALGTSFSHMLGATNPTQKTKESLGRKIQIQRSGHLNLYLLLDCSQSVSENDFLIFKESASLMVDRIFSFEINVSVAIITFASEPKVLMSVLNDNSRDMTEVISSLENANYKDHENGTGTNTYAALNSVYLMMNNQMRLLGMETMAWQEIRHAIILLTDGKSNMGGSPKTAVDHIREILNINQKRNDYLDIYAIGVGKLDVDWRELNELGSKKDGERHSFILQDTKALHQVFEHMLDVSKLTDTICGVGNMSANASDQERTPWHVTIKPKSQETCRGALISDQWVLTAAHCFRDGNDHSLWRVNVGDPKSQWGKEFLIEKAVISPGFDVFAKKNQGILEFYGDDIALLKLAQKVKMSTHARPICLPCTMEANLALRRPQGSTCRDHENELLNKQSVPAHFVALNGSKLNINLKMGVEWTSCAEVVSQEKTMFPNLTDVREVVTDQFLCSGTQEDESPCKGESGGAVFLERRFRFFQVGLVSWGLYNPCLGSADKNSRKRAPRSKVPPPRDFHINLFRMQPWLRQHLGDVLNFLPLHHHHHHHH
Put plainly: SPR, mAb captured, C2 mutant analyte.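 Note: Anti-C2 mAbs captured on goat anti-human IgG Biacore CM5 chips, alanine or serine C2 surface mutants flowed over at 37 °C, double-referenced sensorgrams fitted to a 1:1 binding model.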 On the technique in general: In SPR one partner is held on a chip, and binding of the other changes the refractive index at the surface.

For a further assay, the target named is T3, human C2 H446A (human, UniProt P06681 21-752).
T3 sequence: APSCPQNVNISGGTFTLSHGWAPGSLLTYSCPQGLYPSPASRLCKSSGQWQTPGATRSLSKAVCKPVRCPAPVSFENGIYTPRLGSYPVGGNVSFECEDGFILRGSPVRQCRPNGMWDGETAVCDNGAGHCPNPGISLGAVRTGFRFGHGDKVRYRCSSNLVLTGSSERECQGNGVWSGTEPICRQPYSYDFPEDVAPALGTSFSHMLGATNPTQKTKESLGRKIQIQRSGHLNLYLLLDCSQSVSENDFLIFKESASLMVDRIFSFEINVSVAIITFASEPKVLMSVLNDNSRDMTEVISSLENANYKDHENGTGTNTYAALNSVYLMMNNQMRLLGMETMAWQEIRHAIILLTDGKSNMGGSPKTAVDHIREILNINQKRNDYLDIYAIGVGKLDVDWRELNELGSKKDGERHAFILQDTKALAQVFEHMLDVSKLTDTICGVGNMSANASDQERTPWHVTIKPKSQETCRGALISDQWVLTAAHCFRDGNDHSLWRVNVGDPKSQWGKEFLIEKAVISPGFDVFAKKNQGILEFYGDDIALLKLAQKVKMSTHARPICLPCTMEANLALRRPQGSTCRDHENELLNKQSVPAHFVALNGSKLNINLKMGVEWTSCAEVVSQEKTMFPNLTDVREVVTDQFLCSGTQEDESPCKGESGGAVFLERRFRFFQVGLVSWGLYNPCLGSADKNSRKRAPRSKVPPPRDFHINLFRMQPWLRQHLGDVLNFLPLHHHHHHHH
Put plainly: SPR, KD relative to WT C2.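 Note: biacore SPR at 37 °C, anti-C2 mAbs captured on anti-human IgG chips with alanine or serine point mutants of C2 as analyte, KD from 1:1 fit compared with wild-type C2.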

The target in a further assay is T4, human C2 E267A (human, UniProt P06681 21-752).
T4 sequence: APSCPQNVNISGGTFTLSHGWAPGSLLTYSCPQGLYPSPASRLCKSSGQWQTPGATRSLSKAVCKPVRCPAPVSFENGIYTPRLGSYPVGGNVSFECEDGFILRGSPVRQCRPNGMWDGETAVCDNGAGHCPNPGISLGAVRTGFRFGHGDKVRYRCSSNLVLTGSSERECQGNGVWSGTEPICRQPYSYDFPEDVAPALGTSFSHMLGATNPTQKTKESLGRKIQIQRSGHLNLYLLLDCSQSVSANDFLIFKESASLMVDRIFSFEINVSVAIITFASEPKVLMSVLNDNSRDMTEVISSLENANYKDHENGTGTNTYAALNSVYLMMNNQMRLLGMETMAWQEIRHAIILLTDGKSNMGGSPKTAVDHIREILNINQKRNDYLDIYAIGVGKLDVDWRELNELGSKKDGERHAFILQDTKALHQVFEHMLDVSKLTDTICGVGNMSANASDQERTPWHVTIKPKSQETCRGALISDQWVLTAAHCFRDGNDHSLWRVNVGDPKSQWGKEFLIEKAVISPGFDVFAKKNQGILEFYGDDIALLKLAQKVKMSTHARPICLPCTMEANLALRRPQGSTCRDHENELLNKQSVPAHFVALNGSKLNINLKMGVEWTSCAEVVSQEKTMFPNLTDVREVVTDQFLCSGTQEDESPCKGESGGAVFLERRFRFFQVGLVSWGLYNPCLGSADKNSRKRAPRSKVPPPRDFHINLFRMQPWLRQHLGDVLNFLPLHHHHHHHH
Put plainly: SPR, KD relative to WT C2.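 Note: biacore SPR at 37 °C, anti-C2 mAbs captured on anti-human IgG chips with alanine or serine point mutants of C2 as analyte, KD from 1:1 fit compared with wild-type C2.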

B1: RF16-214 (antibody, V domains shown)
VH: EVQLLESGGGLVQPGGSLRLSCAASGFTFSWYQMMWVRQAPGKGLEWVSRIYPSGGGTAYADSVKGRFTISRDNSKNTLYLQMNSLRAEDTAVYYCARDAGYGDNWGQGTLVTVSS
VL: QSALTQPPSVSVSPGQTASITCSGDKLGEKYASWYQQKAGQSPVMVIYQDRKRPSGIPERFSGSNSGNTATLTISGTQAMDEADYYCQAWDTRAVVFGGGTKLTVLG
The Kd is the concentration at which binding is half-saturated. B1: the Kd with human C2 M316A came out at 30.2 nM; with human C2 A436S, 31.2 nM.

B2: RF16-242 (antibody, human IgG4 S228P, lambda, V domains shown)
VH: EVQLLQSGAEVKKPGESLKISCKGSGYSFTSYWIGWVRQMPGKGLEWMGIIYPGDSDTRYSPSFQGQVTISADKSISTAYLQWSSLKASDTAMYYCARRGHYGDYFDYWGQGTLVTVSS
VL: SYELTQPPSVSVSPGQTARITCSGDALPKKYAYWYHQKSGQAPVLVIYEDRRRPSEIPERFSGSSSGTMATLTITGAQVEDEGVYFCYSRDRAGNQRVFGGGTQLTVLG
notes: pH-dependent anti-C2 antibody from a phage display library
For the molecule B2, the Fold diff in the assay with human C2 H446A and in the assay with human C2 E267A was 2 fold throughout.
